Source: US20160129086A1

Molecular target: CD20 on human lymphoma cells (Daudi, Jeko-1) (UniProt P11836)
Assay: cell-based or functional assay

Chain of CD20 on human lymphoma cells (Daudi, Jeko-1) (P11836 whole entry): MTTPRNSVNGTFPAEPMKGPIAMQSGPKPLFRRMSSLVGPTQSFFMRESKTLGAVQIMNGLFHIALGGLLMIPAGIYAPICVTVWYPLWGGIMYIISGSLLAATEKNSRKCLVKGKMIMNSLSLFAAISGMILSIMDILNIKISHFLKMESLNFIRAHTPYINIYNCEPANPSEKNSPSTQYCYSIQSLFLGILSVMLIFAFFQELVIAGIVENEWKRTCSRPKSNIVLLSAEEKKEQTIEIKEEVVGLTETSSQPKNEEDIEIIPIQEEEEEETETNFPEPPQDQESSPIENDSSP

EC50, high-concentration response, in vitro proliferation of Jeko-1 cells [nM] | EC50, low-concentration response, in vitro proliferation of Jeko-1 cells [nM] | EC50, in vitro proliferation of Jeko-1 cells [nM] | Substance
0.85 | 0.00097 |  | 20-2b (from UniProt P01563 24-188)
 |  | 1.5 | veltuzumab (antibody)
